From patent publication US20230322893A1 (BPGENE, published 2023)

B1: SV4 (designed binder)
chain: MEEELQIIQPDLSVSVAAGESAILHCTITSLFPVGPIQWFRGAGPARVLIYNQRQGPFPRVTTVSETTKRENMDFSISISNITPADAGTYYCIKFRKGSPDTEFLSGAGTELSVRAKPS
notes: also called SV4 protein
B2: SV4-iLP (other)
chain: B1 chain
notes: also called LPD-SV4; SV4-conjugated iLP
B3: SV4-DSPE (other)
chain: B1 chain
notes: also called DSPE-SV4; DSPE-PEG2000-SV4

Target: recombinant CD47 protein (UniProt Q08722 19-139)
Assay: SPR; recombinant CD47 coupled to CM5 chip (250 RU); 1:1 model, global fit
Experimental: Specifically, the recombinant CD47 protein was conjugated to the surface of the CM5 chip by a target SPR reaction of 250 RU through an EDC-NHS reaction to be used, and for HBS-P, the sensogram obtained through a process of association for 3 minutes and dissociation for 10 minutes at a flow rate of 30 µL/minutes was analyzed with the BiaEvaluation software using a 1:1 binding model and global fitting.

Sequence of recombinant CD47 protein (Q08722 19-139 limits assumed): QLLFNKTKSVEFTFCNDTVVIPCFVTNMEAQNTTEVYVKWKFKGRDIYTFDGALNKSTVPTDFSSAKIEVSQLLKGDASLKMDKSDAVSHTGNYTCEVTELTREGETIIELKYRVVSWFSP

B1 and B2 are within 1.5-fold of each other in Kd: 1.67 nM for the first, 1.27 nM for the second.

Binder B3 has a Kd of 1.13 nM.

B1 and B2 are within 1.5-fold of each other in koff: 0.000275 s⁻¹ for the first, 0.000395 s⁻¹ for the second.

With B3 the koff was 0.000256 s⁻¹.

Going from B1 to B2, the kon rises from 164000 M⁻¹ s⁻¹ to 312000 M⁻¹ s⁻¹ (1.9-fold).

For B3, the kon was 227000 M⁻¹ s⁻¹.
